According to patent publication US6348311B1, “ATM kinase modulation for screening and therapies” (St. Jude Childre's Research Hospital, priority 1999, dated 2002):
Where a SMILES comes first, the peptide text is derived from it. Where no end group is shown, it is not given here. [ ]: non-standard residue; d: D form. Nle = CCCC[C@H](N)C(=O)O

How the values were obtained:
p53 phosphoserine 15 = assay: p53 Ser15 phosphorylation in lymphoblasts (immunoprecipitation and immunoblot); format: cell-based, human; details: ALLN 90 min
Procedure: Posttranslational modification of p53 on Ser^15 in response to ionizing radiation. Monoclonal antibodies against a chemically synthesized p53 phosphoserine-15 peptide (amino acids 9-22) were used to immunoblot synthetic peptides (1×, 50 μg) consisting of the first 24 amino acids of p53 with (1-24^S15-P) or without (1-24) phosphoserine 15. Normal WT (2184) or AT (1526) lymphoblasts were untreated or treated with 5 Gy IR (IR) or 20 mM ALLN for 90 min. p53 was immunoprecipitated, subjected to SDS-PAGE (7.5% gel), transferred to nitrocellulose, and immunoblotted with the monoclonal antibody to phosphoserine 15 p53 (upper panel). Blots were then stripped and immunoblotted with antibodies to p53 (lower panel).
Normal (2184) and AT (1526) EBV immortalized human lymphoblasts were irradiated with a ^137Cs source or treated with 20 mm ALLN (Sigma) for 90 min. Cells were then harvested, lysed, and p53 was immunoprecipitated as described (Siliciano et al., Genes Dev., 11:3471, 1997). Immunoprecipitates were resolved by non-reducing SDS-PAGE, transferred to nitrocellulose and immunoblotted with monoclonal antibody to phosphoserine 15. Blots were stripped and reprobed with p53-specific monoclonal antibodies (Ab-2 and Ab-6).

DNA-PK = DNA-PK (Homo sapiens, UniProt P78527); assay: In vitro kinase assay, purified DNA-PK with GST-peptide / GST-fusion substrates; format: biochemical; details: GST-peptide substrate; relative to the p53ser15 site
Procedure: (§1) FIGS. 1A, 1B, and 1C. Phosphorylation of GST-p53 mutant peptides (amino acids 9-21) by ATM, ATR, and DNA-PK in vitro. In vitro kinase assays with immunoprecipitated, transfected flag-tagged ATM (A) or ATR (B) or purified DNA-PK (C) were performed with GST-p53 peptides containing the amino acid substitutions indicated. The amount of 32P-labeled GST-peptides was quantitated with a PhosphorImager and was normalized for each of the kinases to the level of phosphorylation of wild-type GST-p53.
(§2) FIGS. 2A, 2B, and 2C. Phosphorylation of candidate targets of by ATM, ATR and DNA-PK in vitro. GST-peptides containing the putative target sequences were used as substrates for the kinase assay.
(§3) Plasmids and GST-fusion protein production. For GST fusion peptide expression vectors, complementary oligonucleotides encoding desired peptides (14 amino acids) were cloned into the BamHI/SmaI site of pGEX-2T (Pharmacia). The constructs were confirmed by restriction enzyme digests and DNA sequencing. To construct the larger GST-p95 (327-391) protein fragment, p95 DNA encoding amino acids 327-391 was amplified by PCR with Pfu polymerase using the following primers: 5′ sense,
In vitro kinase assays and immunoprecipitation. […] Cleared supernatants were immunoprecipitated with anti-Flag M2 antibody and protein A/G agarose, the beads were washed with TGN buffer followed by TGN buffer plus 0.5 M LiCl, and two washes with kinase buffer [20 mM HEPES (pH 7.5), 50 mM NaCl, 10 mM MgCl2, 1 mM dithiothreitol (DTT) and 10 mM MnCl2]. […] ATP and […] of GST-fusion substrate (GST-p53:1-101), in varying concentration of Mn^2+. The kinase reaction was conducted at 30° C. for 20 min and stopped by the addition of SDS-PAGE loading buffer. Proteins were separated on SDS-polyacrylamide gel electrophoresis (SDS-PAGE) and transferred to nitrocellulose. Radiolabeled proteins were visualized and quantitated on a Phosphorimager (Molecular Dynamics). Use of equivalent amounts of flag-tagged ATM or ATR in the different lanes was confirmed by immunoblotting with anti-flag antibody. In some reactions, either supercoiled DNA (pBluescript II KS, Stratagene) or linearized DNA (pBluescript II KS cut with EcoR1) was added ([…]). For endogenous ATM kinase reactions, endogenous ATM was immunoprecipitated from GM0536 lymphhoblasts with ATM monoclonal antibody (D16.11) in M buffer (PBS, 10% glycerol, 0.2% Tween 20, 0.3% NP-40, 1 mM NaF, 1 mM Na3VO4, 1 mM PMSF, 1x protease inhibitor mixture]. After washing with M buffer and kinase buffer, in vitro kinase reactions were carried out according to procedures described above. The DNA-PK in vitro kinase reaction was performed as previously described (Gottlieb and Jackson, 1993), using 20 ng each of DNA-PKcs or DNA-PK (20 ng DNA-PKcs premixed with 20 ng Ku 70/80).

ATR = molecular target: T1, ATR (Homo sapiens, UniProt Q13535); assay: In vitro kinase assay, ATR with GST-peptide / GST-fusion substrates; format: biochemical; details: GST-peptide substrate; relative to the p53ser15 site
T1 construct: made in house; host or cells: 293T cells, transient transfection with pBJF-FRPwt, anti-FLAG M2 immunoprecipitate
T1 sequence (Q13535 whole entry, the tested form may be a part): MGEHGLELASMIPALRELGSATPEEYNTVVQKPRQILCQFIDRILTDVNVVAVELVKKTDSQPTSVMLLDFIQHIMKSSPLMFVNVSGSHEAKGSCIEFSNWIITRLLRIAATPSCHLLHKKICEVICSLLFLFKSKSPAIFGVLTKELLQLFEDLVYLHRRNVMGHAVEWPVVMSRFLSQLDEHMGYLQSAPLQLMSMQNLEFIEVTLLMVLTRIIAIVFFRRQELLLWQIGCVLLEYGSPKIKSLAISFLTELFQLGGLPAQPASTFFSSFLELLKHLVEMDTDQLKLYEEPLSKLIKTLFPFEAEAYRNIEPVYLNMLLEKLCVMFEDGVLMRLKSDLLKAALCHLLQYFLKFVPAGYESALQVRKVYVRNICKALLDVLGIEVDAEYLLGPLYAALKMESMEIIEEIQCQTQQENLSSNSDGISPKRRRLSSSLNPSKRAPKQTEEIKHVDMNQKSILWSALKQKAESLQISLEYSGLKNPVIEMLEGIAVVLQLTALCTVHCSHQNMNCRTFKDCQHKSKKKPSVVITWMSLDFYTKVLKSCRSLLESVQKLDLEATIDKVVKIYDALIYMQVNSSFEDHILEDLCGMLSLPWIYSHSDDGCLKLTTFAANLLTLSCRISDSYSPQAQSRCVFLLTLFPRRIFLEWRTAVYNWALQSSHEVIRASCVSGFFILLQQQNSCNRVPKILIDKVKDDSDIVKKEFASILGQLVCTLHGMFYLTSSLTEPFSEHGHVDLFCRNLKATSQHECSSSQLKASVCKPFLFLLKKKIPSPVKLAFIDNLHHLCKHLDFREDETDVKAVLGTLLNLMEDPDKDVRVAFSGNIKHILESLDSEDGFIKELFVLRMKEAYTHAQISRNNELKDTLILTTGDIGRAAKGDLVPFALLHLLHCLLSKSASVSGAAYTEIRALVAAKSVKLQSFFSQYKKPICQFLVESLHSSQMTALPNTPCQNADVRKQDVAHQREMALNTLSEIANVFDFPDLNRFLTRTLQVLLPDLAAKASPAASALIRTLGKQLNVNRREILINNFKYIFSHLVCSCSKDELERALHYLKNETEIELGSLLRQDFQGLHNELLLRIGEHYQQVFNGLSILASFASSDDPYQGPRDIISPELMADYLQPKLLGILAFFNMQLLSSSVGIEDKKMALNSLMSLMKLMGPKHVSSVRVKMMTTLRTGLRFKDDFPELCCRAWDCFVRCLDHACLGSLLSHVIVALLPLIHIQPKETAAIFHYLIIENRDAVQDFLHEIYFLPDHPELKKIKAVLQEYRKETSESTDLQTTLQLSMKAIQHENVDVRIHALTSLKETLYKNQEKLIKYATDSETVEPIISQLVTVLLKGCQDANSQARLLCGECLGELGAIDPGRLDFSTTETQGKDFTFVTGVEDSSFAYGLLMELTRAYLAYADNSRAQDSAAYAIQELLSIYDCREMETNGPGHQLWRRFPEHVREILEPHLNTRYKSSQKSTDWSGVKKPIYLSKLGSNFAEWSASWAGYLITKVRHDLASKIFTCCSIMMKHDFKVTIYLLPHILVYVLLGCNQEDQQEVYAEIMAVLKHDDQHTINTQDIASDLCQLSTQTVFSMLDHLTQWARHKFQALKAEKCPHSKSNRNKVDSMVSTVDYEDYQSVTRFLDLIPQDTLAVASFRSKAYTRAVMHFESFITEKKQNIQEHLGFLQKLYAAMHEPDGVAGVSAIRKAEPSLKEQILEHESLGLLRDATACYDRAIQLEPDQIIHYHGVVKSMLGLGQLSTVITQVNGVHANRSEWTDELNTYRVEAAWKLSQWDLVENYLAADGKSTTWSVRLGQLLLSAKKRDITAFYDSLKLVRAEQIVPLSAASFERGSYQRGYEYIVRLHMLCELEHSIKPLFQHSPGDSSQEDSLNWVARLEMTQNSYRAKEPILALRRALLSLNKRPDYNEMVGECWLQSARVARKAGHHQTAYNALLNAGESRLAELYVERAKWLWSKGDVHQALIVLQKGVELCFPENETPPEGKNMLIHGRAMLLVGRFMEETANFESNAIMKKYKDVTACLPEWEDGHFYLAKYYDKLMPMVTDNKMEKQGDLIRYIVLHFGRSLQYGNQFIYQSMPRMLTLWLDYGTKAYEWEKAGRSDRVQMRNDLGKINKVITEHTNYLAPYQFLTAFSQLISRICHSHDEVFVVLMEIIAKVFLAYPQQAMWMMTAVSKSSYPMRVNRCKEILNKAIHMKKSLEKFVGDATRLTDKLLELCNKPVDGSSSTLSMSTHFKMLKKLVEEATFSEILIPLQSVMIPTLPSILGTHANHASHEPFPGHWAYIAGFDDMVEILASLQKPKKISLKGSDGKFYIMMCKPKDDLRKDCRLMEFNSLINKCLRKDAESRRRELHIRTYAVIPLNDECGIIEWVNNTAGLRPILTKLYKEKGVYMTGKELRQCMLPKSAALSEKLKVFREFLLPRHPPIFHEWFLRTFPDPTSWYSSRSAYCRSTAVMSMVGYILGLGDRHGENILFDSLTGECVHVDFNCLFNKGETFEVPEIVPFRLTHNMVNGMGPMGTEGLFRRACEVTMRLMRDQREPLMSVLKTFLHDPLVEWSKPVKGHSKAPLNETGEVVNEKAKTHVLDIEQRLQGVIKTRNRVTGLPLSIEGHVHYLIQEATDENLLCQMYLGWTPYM
Procedure: as §1, §2
Transfection and Kinase Activity Assays. 293T cells were transiently transfected with 10 μg of either pcDNA-FLAG-ATMwt, pcDNA-FLAG-ATMkd, pBJF-FRPwt or pBJF-FRPkd (Cliby et al., EMBO J., 17:159, 1998) using calcium phosphate and harvested two days later. Cells were lysed through sonication in TGN buffer [50 mM Tris (pH 7.5), 50 mM glycerophosphate, 150 mM NaCl, 10% glycerol, 1% Tween 20, 1 mM NaF, 1 mM NaVO4, 1 mM PMSF, […] Pepstatin A, 5 μg/ml leupeptin, 10 μg/ml Aprotinin and 1 mM DTT] as described (Brunn et al., Science, 277:99-101,1997). After centrifugation at 13,000 ×g, 2 mg of extract were incubated with mouse IgG and protein A/G sepharose beads (Calbiochem). FLAG-tagged proteins were then immunoprecipitated with anti-FLAG M2 monoclonal antibody (Eastman Kodak Company) and protein A/G sepharose beads. Immunoprecipitates were washed twice with TGN buffer, once with 100 mM Tris (pH 7.5) plus 0.5 M LiCl, and twice with kinase buffer [10 mM Hepes (pH 7.5), 50 mM glycerophosphate, 50 mM NaCl, 10 mM MgCl2, 10 mM MnCl2, 5 μM ATP, and 1 mM DTT]. Kinase reactions were initiated by resuspending washed beads in 30 μl of kinase buffer containing 10 μCi [γ-^32P]ATP and 1 μg GSTp531-101 and incubated for 30 minutes at 30° C. Proteins were electrophoretically separated by SDS-polyacrylamide gel electrophoresis, transferred to nitrocellulose, and analyzed on a PhosphorImager. FLAG-tagged proteins and GSTp531-101 were subjected to immunoblotting with either anti-FLAG M2 antibody or monoclonal antibodies directed towards the NH2-terminus of p53 (Ab-2 and Ab-6, Calbiochem) as described (Siliciano et al., Genes Dev., 11:3471, 1997).
Phosphorylation of Ser^15 of p53 by ATM and ATR/FRP1 in vitro. […] Proteins from each reaction were separated by SDS polyacrylamide gel electrophoresis (7% gel), transferred to nitrocellulose, and analyzed either on a PhosphorImager or by immunoblotting. Amounts of FLAG-tagged ATM or ATR in each kinase reaction were measured by immunoblotting with anti-FLAG M2 (top panel) and amount of [γ^32P]phosphate incorporated into ATM or ATR during the reaction (lower panel). […] An upper immunoreactive band represents phosphorylated GSTp53 fusion protein. The same exposures were used for ATM, ATR/FRP1 and corresponding substrate proteins.
as §3
In vitro kinase assays and immunoprecipitation. […] Cleared supernatants were immunoprecipitated with anti-Flag M2 antibody and protein A/G agarose, the beads were washed with TGN buffer followed by TGN buffer plus 0.5 M LiCl, and two washes with kinase buffer [20 mM HEPES (pH 7.5), 50 mM NaCl, 10 mM MgCl2, 1 mM dithiothreitol (DTT) and 10 mM MnCl2]. […] ATP and […] of GST-fusion substrate (GST-p53:1-101), in varying concentration of Mn^2+. […]

ATM kinase = molecular target: T2, ATM kinase (Homo sapiens, UniProt Q13315); assay: In vitro kinase assay, ATM with GST-peptide / GST-fusion substrates; format: biochemical; details: GST-peptide substrate; relative to the p53ser15 site;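 note: immunoprecipitated ATM incubated with [γ-32P]ATP at 30 °C for 20 min, substrates resolved by SDS-PAGE and radiolabel incorporation quantified by PhosphorImager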
T2 construct: The full-length cDNA encoding NH2-terminal, FLAG-tagged wild-type ATM; made in house; host or cells: 293T cells, transient transfection with pcDNA-FLAG-ATMwt, anti-FLAG M2 immunoprecipitate on beads

[1] = tested on: p95 Ser343 phosphorylation; assay: IR-induced phosphorylation of Myc-p95 on Ser343 in co-transfected 293T cells; format: cell-based; details: co-transfected with p95 into 293T cells, 5 Gy IR
Source text: FIGS. 4A and 4B. In vivo phosphorylation of p95 on ser343 by ATM upon ionizing irradiation. (A) Phosphorylation of p95 on Ser343 by IR in an ATM-dependent manner in vivo. […] The expression of Flag-ATM in each cell lysates was detected with anti-Flag antibody (top panel). Immunoprecipitated Myc-p95 was blotted with anti-a-p95-phosphoserine 343 antibody (middle panel) or anti-Myc antibody (lower panel). (B) Phosphorylation of endogenous p95 on Ser343 in normal cells, but not AT cells, after IR. Normal (WT, GM0536) or AT (GM1526) lymphoblasts were treated with either 0 (−) or 5 (+) Gy IR. Endogenous p95 was immunoprecipitated and blotted with anti-a-p95-phosphoserine 343 antibody (top panel) or anti-p95 antibody (lower panel).
In vivo phosphorylation of p95. Myc-tagged p95 (3 μg) was transiently co-transfected into 293T cells with wtATM, kdATM, or pCDNA3 (7μg) using calcium phosphate. After 2 days, cells were harvested and Myc-p95 was immunoprecipitated, subjected to SDS-PAGE (7.5%), transferred to nitrocelluose, and immunoblotted with α-cMyc antibody or the α-p95-phosphoserine 343 polyclonal mouse antibody. For metabolic labeling, the cells were washed with phosphate free RPMI plus 10% dialyzed fetal bovine serum and incubated for 30 min before irradiation. […] After electrophoresis in 7.5% SDS-PAGE, radiolabeled p95 and ATM were visualized and quantified on a PhosphorImager.

Compound	effect on p53 protein (p53 phosphoserine 15; lymphoblasts)	Phosphoserine 15 of p53 (p53 phosphoserine 15; normal lymphoblasts)	Relative Phosphorylation (%) DNA-PK (DNA-PK) [%]	Relative Phosphorylation (%) ATR (ATR) [%]	Relative Phosphorylation (%) ATM (ATM kinase) [%]	IR-induced phosphorylation of p95ser343 [1]
CCCC[C@@H](C=O)NC(=O)[C@H](CC(C)C)NC(=O)[C@H](CC(C)C)NC(C)=O [ALLN, acetyl-Leu-Leu-norleucinal] (Ac-Leu-Leu-[Nle]-aldehyde)	stabilization of p53 protein	undetectable	–	–	–	–
c-ABL: GST-peptide YPGIDLSQVYELLE (SEQ ID NO:23), S446 (not fully specified (N-terminus); also: GST fusion; listed as Homo sapiens)	–	–	<1	8	<1	–
kinase-inactive form of ATM: FLAG-tagged full-length ATM mutant D2870A and N2875K, kinase-dead, dominant-negative	–	–	–	–	–	significantly inhibited
p53 S37: GST-peptide VLSPLPSQAMDDLM (SEQ ID NO:8), p53 serine 37 site (not fully specified (N-terminus); also: GST fusion; listed as Homo sapiens)	–	–	132	31	9	–
p95: GST-peptide TPGPSLSQGVSVDE (SEQ ID NO:10), S343 (not fully specified (N-terminus); also: GST fusion; listed as Homo sapiens)	–	–	45	31	19	–
p115-RhoGEF: GST-peptide RLRPLLSQLGGNSV (SEQ ID NO:27), S899 (not fully specified (N-terminus); also: GST fusion; listed as Homo sapiens)	–	–	<1	15	<1	–
p120E4F: GST-peptide APEPPVSQELPCSR (SEQ ID NO:31), S355 (not fully specified (N-terminus); also: GST fusion; listed as Homo sapiens)	–	–	2	30	11	–
β3A Adaptin: GST-peptide ELKPVLSQG (SEQ ID NO:43), S1092 (not fully specified (N-terminus); also: GST fusion; listed as Homo sapiens)	–	–	44	22	6	–
β-ADAPTIN: GST-peptide CRAPEVSQHVYQAY (SEQ ID NO:28), S935 (not fully specified (N-terminus); also: GST fusion; listed as Homo sapiens)	–	–	2	22	5	–
